According to US7173007:

Target: T1, recombinant full-length hCAP18/LL-37 (residues 31-170)
T1 chain: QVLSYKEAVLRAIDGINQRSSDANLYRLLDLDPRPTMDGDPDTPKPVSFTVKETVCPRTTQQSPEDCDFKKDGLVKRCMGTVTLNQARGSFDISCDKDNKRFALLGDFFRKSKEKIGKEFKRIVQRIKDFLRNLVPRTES

B1: human neutrophil elastase (Calbiochem) (protein)
chain: IVGGRRARPHAWPFMVSLQLRGGHFCGATLIAPNFVMSAAHCVANVNVRAVRVVLGAHNLSRREPTRQVFAVQRIFENGYDPVNLLNDIVILQLNGSATINANVQVAQLPAQGRRLGNGVQCLAMGWGLLGRNRGIASVLQELNVTVVTSLCRRSNVCTLVRGRQAGVCFGDSGSPLVCNGLIHGIASFVRGGCASGLYPDAFAPVAQFVNWIDSIIQ
proteolytic processing of hCAP18/LL-37 (SDS-PAGE and immunoblot): Elastase treatment generated a band migrating at the same size as synthetic LL-37, and a band at 14 kDa
